The text below walks through data of patent publication US20130052176, “APTAMER FOR NGF AND USE THEREOF” (SHIONOGI & CO., LTD, published 2013).

A value given as a limit tells only on which side of the number the result lay.

B1: aptamer ID 17 (ssRNA)
RNA: GGGAGAACUUCGCCAGAAGUUUGAAAGAAACCCAAAUUAAAGAUGUGCGCAUCA
modifications: 2'-F at all pyrimidines
B2: aptamer ID 47 (ssRNA)
RNA: GGGAGAACUUCGACCAGAGUCGAUAACGAACAAAACUCCCAAAUAUGUGCGCAUACA
modifications: 2'-F at all pyrimidines
B3: aptamer ID 41 (ssRNA)
RNA: GGGAGAACUUCGACCAGAAGUCGAUAACGAACAAAACUCCCAAAGGUAAUGUGCGCAUACA
modifications: 2'-F at all pyrimidines
B4: aptamer ID 39 (ssRNA)
RNA: GGGAGAACUUCGACCAGAAGUCGAUAACGAACAAAACUCCCAAAGGAAAUGUGCGCAUACA
modifications: 2'-F at all pyrimidines
B5: aptamer ID 13 (ssRNA)
RNA: GGGAGAACUUCGCCAGAAGUUUGAAAGAAACCCAAAUUAAAGUAUGUGCGCAUACA
modifications: 2'-F at all pyrimidines
B6: aptamer ID 15 (ssRNA)
RNA: GGGAGAACUUCGCCAGAAGUUUGAAAGAAACCCAUUAAAAAGUAUGUGCGCAUACA
modifications: 2'-F at all pyrimidines
B7: aptamer ID 16 (ssRNA)
RNA: GGGAGAACUUCGCCAGAAGUUUGAAAGAAACCCAAAUUAAAAAGAUGUGCGCAUCA
modifications: 2'-F at all pyrimidines
B8: aptamer ID 9 (ssRNA)
RNA: GGGAGAACUUCGACCAGAAGUUUGAAAGAAACCCAAAUUAAAAAGAUGUGCGCAUCA
modifications: 2'-F at all pyrimidines
B9: aptamer ID 46 (ssRNA)
RNA: GGGAGAACUUCGACCAGAAGUCGAUAACGAACAAAACUCCCAAAUAUGUGCGCAUAC
modifications: 2'-F at all pyrimidines
B10: aptamer ID 11 (ssRNA)
RNA: GGGAGAACUUCGCCAGAAGUUUGAAAGAAACCCAAAUAAAAAGUAUGUGCGCAUACA
modifications: 2'-F at all pyrimidines
B11: aptamer ID 14 (ssRNA)
RNA: GGGAGAACUUCGCCAGAAGUUUGAAAGAAACCCAAUUAAAAAGUAUGUGCGCAUACA
modifications: 2'-F at all pyrimidines
B12: aptamer ID 12 (ssRNA)
RNA: GGGAGAACUUCGCCAGAAGUUUGAAAGAAACCCAAAUUAAAAGUAUGUGCGCAUACA
modifications: 2'-F at all pyrimidines
B13: aptamer ID 44 (ssRNA)
RNA: GGGAGAACUUCGACCAGAAGUCGAUAACGAACAAAACUCCCAAAGGAUGUGCGCAUACA
modifications: 2'-F at all pyrimidines
B14: aptamer ID 45 (ssRNA)
RNA: GGGAGAACUUCGACCAGAAGUCGAUAACGAACAAAACUCCCAAAUAAUGUGCGCAUACA
modifications: 2'-F at all pyrimidines
B15: aptamer ID 58 (mixed)
mixed: GGGAUAAAAAUAGAGUUUGATAAACACCUGUAUTAAAACCC
modifications: 5' cholesterol; 3' idT; 2'-F pyrimidines (except dT at 21,34) and a37,a38; 2'-OMe other purines except 2'-OH at 4,7,30
B16: aptamer ID 59 (mixed)
mixed: GGGAUAAAAAUAGAGUUUGATAAACACCUGUAUUAAAACCC
modifications: 5' cholesterol; 3' idT; 2'-F pyrimidines (except dT at 21 and dC at 41) and a37,a38; 2'-OMe other purines except 2'-OH at 4,7,30
B17: aptamer ID 40 (ssRNA)
RNA: GGGAGAACUUCGACCAGAAGUCGAUAACGAACAAAACUCCCAAAUAUAUGUGCGCAUACA
modifications: 2'-F at all pyrimidines
B18: aptamer ID 42 (ssRNA)
RNA: GGGAGAACUUCGACCAGAAGUCGAUAACGAACAAAACUCCCGGAAUAAUGUGCGCAUACA
modifications: 2'-F at all pyrimidines
B19: aptamer ID 18 (ssRNA)
RNA: GGGAGAACUUCGCCAGAAGUUUGAAAGAAACCCAAAUAAAGAUGUGCGCAUCA
modifications: 2'-F at all pyrimidines
B20: aptamer ID 51 (ssRNA)
RNA: GGAGAACUUCGACCAGAGUCGAUAACGAACAAAACUCCAAAUAUGUGCGCAUAC
modifications: 2'-F at all pyrimidines
B21: aptamer ID 50 (ssRNA)
RNA: GGGAGAACUUCGACCAGAGUCGAUAACGAACAAAACUCCCAAUAUGUGCGCAUAC
modifications: 2'-F at all pyrimidines
B22: aptamer ID 49 (ssRNA)
RNA: GGGAGAACUUCGACCAGAAGUCGAUAACGAACAAAACUCCCAAUAUGUGCGCAUACA
modifications: 2'-F at all pyrimidines
B23: aptamer ID 5 (ssRNA)
RNA: GGGAGAACUUCGACCAGAAGUUUGAAAGAAACCCAAAUUAAAAACAGUAUGUGCGCAUACA
modifications: 2'-F at all pyrimidines
B24: aptamer ID 7 (ssRNA)
RNA: GGGAGAACUUCGACCAGAAGUUUGAAAGAAACCCAAAUUAAAGGAAGUAUGUGCGCAUACA
modifications: 2'-F at all pyrimidines
B25: aptamer ID 34 (ssRNA)
RNA: GGGAGAACUUCGACCAGAAGUCGAUAACGAACAAAACUCCCAAAGGAAUAUGUGCGCAUACA
modifications: 2'-F at all pyrimidines
B26: aptamer ID 36 (ssRNA)
RNA: GGGAGAACUUCGACCAGAAGUCGAUAACGAACAAAACUCCCAAAAAUAUAUGUGCGCAUACA
modifications: 2'-F at all pyrimidines
B27: aptamer ID 35 (ssRNA)
RNA: GGGAGAACUUCGACCAGAAGUCGAUAACGAACAAAACUCCCAAAGGUAUAUGUGCGCAUACA
modifications: 2'-F at all pyrimidines
B28: aptamer ID 37 (ssRNA)
RNA: GGGAGAACUUCGACCAGAAGUCGAUAACGAACAAAACUCCCGGAAUAUAUGUGCGCAUACA
modifications: 2'-F at all pyrimidines
B29: aptamer ID 4 (ssRNA)
RNA: GGGAGAACUUCGACCAGAAGUUUGAAAGAAACCCAAAUUAAAGUGAACAGUAUGUGCGCAUACUGGAUCCUCA
modifications: 2'-F at all pyrimidines
B30: aptamer ID 54 (ssRNA)
RNA: GGGAGAACUUCGACCAGAAGAUUUGAAAAAAACCCAAAUUAAAGUAUGUGCGCAUACA
modifications: 2'-F at all pyrimidines
B31: aptamer ID 52 (ssRNA)
RNA: GGGAGAACUUCGACCAGAAGUUUGAAAAAAACCCAAAUUAAAGUAUGUGCGCAUACA
modifications: 2'-F at all pyrimidines
B32: aptamer ID 3 (ssRNA)
RNA: GGGAGAACUUCGACCAGAAGUUUGAAAGAAACCCAAAUUAAAGGAACAGUAUGUGCGCAUACAUGGAUCCUCA
modifications: 2'-F at all pyrimidines
B33: aptamer ID 31 (ssRNA)
RNA: GGGAGAACUUCGACCAGAAGUCGAUAACGAACAAAACUCCCAAAGGAAUAUAUGUGCGCAUACAUGGAU
modifications: 2'-F at all pyrimidines
B34: aptamer ID 6 (ssRNA)
RNA: GGGAGAACUUCGACCAGAAGUUUGAAAGAAACCCAAAAAAGUGAACAGUAUGUGCGCAUACA
modifications: 2'-F at all pyrimidines
B35: aptamer ID 38 (ssRNA)
RNA: GGGAGAACUUCGACCAGAAGUCGAUAACGAACAAAACUCCCAAAGGAAUAUAUGUGCGCAUAC
modifications: 2'-F at all pyrimidines
B36: aptamer ID 33 (ssRNA)
RNA: GGGAGAACUUCGACCAGAAGUCGAUAACGAACAAAACUCCCAAAGGAAUAUAUGUGCGCAUACAUGGAUCCU
modifications: 2'-F at all pyrimidines
B37: aptamer ID 2 (ssRNA)
RNA: GGGAGAACUUCGACCAGAAGUUUGAAAGAAACCCAAAUUAAAGUGAAGUAUGUGCGCAUACAUUCCUCA
modifications: 2'-F at all pyrimidines
B38: aptamer ID 8 (ssRNA)
RNA: GGGAGAACUUCGACCAGAAGUUUGAAAGAAACCCAAAUUAAAGUGAACAGAUGUGCGCAUCA
modifications: 2'-F at all pyrimidines
B39: aptamer ID 53 (ssRNA)
RNA: GGGAGAACUUCGACCAGAGUCGAGAGCGAAAGAAACUCCCAAAUAUGUGCGCAUAC
modifications: 2'-F at all pyrimidines
B40: aptamer ID 20 (ssRNA)
RNA: GGGAGAACUUCGCCAGAAGUUUGAAAGAAACCCAAAUAAAGUGUGCGCACA
modifications: 2'-F at all pyrimidines

One series deals with T1, NGF (nerve growth factor) (human, UniProt P01138 P01138:122-241). The series can be described thus: cell_activity; neurite outgrowth, NGF 1.1 nM; SPR binding. The following applies: tags: amine-coupled to CM5 chip in SPR; soluble in cell assays; chain copies: 2. On the procedure: (§1) The neurite outgrowth inhibitory activity of the aptamer obtained in Example 1 was evaluated by using Neuroscreen-1 cell, which is a subclone of PC-12 cells.
T1 sequence (P01138 122-241, one chain of several): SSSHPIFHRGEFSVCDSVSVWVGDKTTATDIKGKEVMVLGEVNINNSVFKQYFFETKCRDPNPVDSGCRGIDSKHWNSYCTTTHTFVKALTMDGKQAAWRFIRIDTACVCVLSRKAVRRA
(§2) The cells (2500 cells per well) were cultured for one day in an RPMI-1640 medium containing 2.5% horse serum and 1.25% fetal bovine serum in a 96 well flat-bottom plate coated with collagen type IV. […] Two days later, the cytoplasm and nuclei were stained using Cellomics Neurite Outgrowth Kit (manufactured by Thermo Scientific), and neurite length per cell was measured by Cellomics ArrayScan VTI (manufactured by Thermo Scientific). With the neurite length per cell obtained by the addition of NGF alone as inhibitory activity 0%, and that of the cell obtained by NGF free culture for 2 days as inhibitory activity 100%, the inhibitory activity of the aptamer was calculated from the neurite length per cell obtained by culturing with the addition of NGF and the aptamer in mixture. When the inhibitory activity was 0% or below, ‘0%’ is indicated.
(Surface plasmon resonance follows binding to a sensor surface in real time, without labels.)
As a reminder, the IC50 is the point on the concentration scale where inhibition reaches its midpoint. A lower IC50 goes with greater potency in that assay. With B1, the half-maximal inhibitory concentration (IC50) was less than 1 nM. As to B2, the IC50 turned out to be 2.5 nM. B3 had a half-maximal inhibitory concentration (IC50) of less than 3 nM. Molecule B4 showed an IC50 of less than 3 nM. In turn, B5 came in with an IC50 of 1.3 nM. Still for that read-out and setting: as for B6, the figure is 1.9 nM; as for B7, 1.1 nM. Regarding B8, the IC50 was less than 3 nM. Molecule B9 yielded an IC50 of 2.6 nM. In turn, B10 registered a concentration for half-maximal inhibition (IC50) of 1.5 nM. As for B11, the 50% inhibitory concentration (IC50) worked out at 1.2 nM. B12 returned an IC50 of 1.4 nM. Molecule B13 showed a 50% inhibitory concentration (IC50) of less than 3 nM. On the same count and under the same terms, for B14 the value was less than 3 nM; for B15, 5.4 nM; for B16, 6.9 nM. Regarding B17, the 50% inhibitory concentration (IC50) was less than 3 nM. Same read-out and setting: for B18 the value was less than 3 nM; for B19, less than 10 nM; for B20, 2.7 nM.

As to B21, the IC50 amounted to 2.6 nM. On the same count and under the same terms, as for B22, the figure is 1.8 nM.

In another series the target is T1, NGF (nerve growth factor). The experiment in a line: cell_activity; neurite outgrowth, NGF 1.1 nM; SPR binding; blocks NGF-TrkA. Conditions: tags: amine-coupled to CM5 chip in SPR; soluble in cell assays; chain copies: 2. On the procedure: as §1, §2
The molecule B23 registered a concentration for half-maximal inhibition (IC50) of less than 3 nM.

B24 returned an IC50 of less than 3 nM. On to B25, for which the IC50 was less than 3 nM. Molecule B26 yielded an IC50 of less than 3 nM.

The molecule B27 registered a half-maximal inhibitory concentration (IC50) of less than 3 nM. Consider B28, for which the concentration for half-maximal inhibition (IC50) is less than 3 nM.

B29 yielded a half-maximal inhibitory concentration (IC50) of less than 3 nM. Regarding B30, the half-inhibitory concentration (IC50) came out at 3 nM. In turn, B31 showed a concentration for half-maximal inhibition (IC50) of 5.9 nM. On the same count and under the same terms, for B32 the value was less than 3 nM; for B33, less than 3 nM; for B34, less than 3 nM. Take B35: the half-maximal inhibitory concentration (IC50) was less than 3 nM. Molecule B36 returned an IC50 of less than 3 nM. Regarding B37, the concentration for half-maximal inhibition (IC50) is less than 3 nM.

B38 came in with a half-inhibitory concentration (IC50) of less than 3 nM. Still for that read-out and setting: as for B39, the figure is 4.7 nM.

The target in a further series is T1, NGF (nerve growth factor). The series can be described thus: cell_activity; neurite outgrowth, NGF 1.1 nM; SPR binding; TF-1 IC50 <1.0 nM. The following applies: tags: amine-coupled to CM5 chip in SPR; soluble in cell assays; chain copies: 2.
B40 displayed an IC50 of 1 nM. On the same count and under the same terms, for GGGAGAACUUCGCCAGAAGUUUGAAAGAAACCCAAAUAAGUGUGCGCAC (ssRNA, 2'-F at all pyrimidines) [aptamer ID 24] the value was less than 1 nM; for GGGAGACUCGCCAGAGUUGAAAGAAACCCAAAUAAGUGUGCGCAC (ssRNA, 2'-F pyrimidines; 2'-OMe at 36,38,40,42,44; other purines 2'-OH) [aptamer ID 26(6)], less than 1 nM; for GGGAGAACUUCGCCAGAAGUUUGAAAGAAACCCAAAUAAGUGUGCGCACA (ssRNA, 2'-F at all pyrimidines) [aptamer ID 23], less than 1 nM.
